For the assay, the target named is RSV prefusion F (PR-DM) (respiratory syncytial virus A) (UniProt P03420). Description: cryo-EM structure.

The values that follow come from PMC12684077.

In the case of “RSV prefusion F (PR-DM) (from UniProt P03420) (complex)”, the stoichiometry N (usually the number of molecules, sites or subunits per partner or assembly) came to 3.
